From patent US20220185898A1 (Alector, published 2022)

Key:
[1] = molecular target: T1, mouse Sortilin expressed on 293 / HEK293T cells (mouse, UniProt Q6PHU5 74-825); assay: FACS, HEK293T + msSort
T1 construct: full-length recombinant mouse Sortilin; also called mSort; msSort
Procedure: Antibodies were diluted in FACS buffer (PBS+2% FBS+0.01% NaAzide). After incubation on ice for 1 h, cells were washed three times in FACS buffer and incubated with anti-human PE conjugated secondary antibody (BD Biosciences, 1:100 dilution) for 30 min on ice. Then cells were washed twice in 200 ul FACS buffer, and subsequently analyzed on a FACS Canto or iQE FACS screening instrument (Intellicyt Corp).

[2] = molecular target: T2, mouse Sortilin Fc fusion protein (mouse; human, UniProt Q6PHU5 74-754); assay: ForteBio, avid;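 note: whole IgG captured on AHQ sensors, then contacted with Sortilin Fc fusion antigen at 100 nM, followed by an off-rate phase in buffer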
T2 construct: whole entry named; also called mSort-Fc
Procedure: (§1) The affinity for the Sortilin antibodies was determined by measuring their KD by ForteBio. […] Briefly, ForteBio affinity measurements were performed by loading IgGs on-line onto AHQ sensors. Sensors were equilibrated off-line in assay buffer for 30 min and then monitored on-line for 60 seconds for baseline establishment. For avid binding measurement, sensors with loaded IgGs were exposed to 100 nM antigen (human or mouse Sortilin Fc fusion) for 3, afterwards they were transferred to assay buffer for 3 min for off-rate measurement.
(§2) The binding affinity of each anti-Sortilin antibody was determined by measuring their KD by ForteBio or MSD-SET at room temperature. […] Briefly, ForteBio affinity measurements were performed by loading IgGs on-line onto AHQ sensors. Sensors were equilibrated off-line in assay buffer for 30 min and then monitored on-line for 60 seconds for baseline establishment. Sensors with loaded IgGs were exposed to 100 nM antigen for 5 minutes, then transferred to assay buffer for 5 min for off-rate measurement. Kinetics were analyzed using the 1:1 binding model.

[3] = molecular target: T3, human Sortilin Fc fusion protein (human, UniProt Q99523 78-755); assay: ForteBio, avid;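 note: whole IgG captured on AHQ sensors, then contacted with Sortilin Fc fusion antigen at 100 nM, followed by an off-rate phase in buffer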
T3 construct: whole entry named; also called hSort-Fc
Procedure: as §1, §2

[4] = molecular target: T4, human Sortilin expressed on 293 / HEK293T cells (human, UniProt Q99523 78-830); assay: FACS, 293 cells;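 note: antibodies at 10 µg/ml bound to cells for 1 h on ice, detected with PE-labelled anti-human secondary antibody by flow cytometry, reported as mean fluorescence intensity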
T4 construct: full-length recombinant human Sortilin; also called hSort; SORT1
Procedure: (§3) Cells were harvested, plated at 10⁵/ml in a 96 well plate, washed, and incubated in 100 μl PBS containing 10 μg/ml Mab and 2% FBS for 1 hour in ice. Cells were then washed twice and incubated in 100 μl PBS+2% FBS containing 5 μg/ml PE-conjugated anti-human secondary antibody for 30 minutes in ice. Cells were washed twice in cold PBS and data was acquired on a BD FACS Canto. Data analysis and calculation of MFI values was performed with FlowJo (TreeStar) software version 10.0.7.

[5] = molecular target: T1, mouse Sortilin expressed on 293 / …; assay: FACS, 293 cells;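 note: antibodies at 10 µg/ml bound to cells for 1 h on ice, detected with PE-labelled anti-human secondary antibody by flow cytometry, reported as mean fluorescence intensity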
Procedure: as §3

[6] = molecular target: T5, biotinylated mouse Sortilin monomer (mouse, UniProt Q6PHU5 74-754, limits assumed, biotinylated); assay: MSD-SET, Fab
T5 construct: also called Bt-msSort
Procedure: Antibodies (20 nM in PBS) were coated onto standard bind MSD-ECL plates overnight at 4° C. or at room temperature for 30 min. Plates were then blocked with 1% BSA for 30 min with shaking at 700 rpm, followed by three washes with wash buffer (PB SF+0.05% Tween 20). SET samples were applied and incubated on the plates for 150 s with shaking at 700 rpm followed by one wash. Antigen captured on a plate was detected with 250 ng/ml sulfotag-labeled streptavidin in PBSF by incubation on the plate for 3 min. The plates were washed three times with wash buffer and then read on the MSD Sector Imager 2400 instrument using 1× Read Buffer T with surfactant. The percent free antigen was plotted as a function of titrated antibody in Prism and fit to a quadratic equation to extract the KD. To improve throughput, liquid handling robots were used throughout MSD-SET experiments, including SET sample preparation.

[7] = molecular target: T5, biotinylated mouse Sortilin monomer; assay: ForteBio, Fab
Procedure: The affinity of the anti-Sortilin antibodies was determined by measuring their KD by ForteBio and MSD. […] Briefly, ForteBio affinity measurements were performed by loading immunoglobulins (IgGs) on-line onto AHQ sensors. Sensors were equilibrated off-line in assay buffer for 30 min and then monitored on-line for 60 seconds for baseline establishment. For avid binding measurement, sensors with loaded IgGs were exposed to 100 nM antigen (human or mouse Sortilin Fc fusion) for 3 min, afterwards they were transferred to assay buffer for 3 min for off-rate measurement. […] Monovalent binding measurements were obtained by loading human or mouse Sortilin Fc fusion antigens to AHQ sensor and followed by exposure to −100 nM Sortilin antibody Fab. […] Kinetics data were fit using a 1:1 binding model in the data analysis software provided by ForteBio.

| Kd [2] [nM] | Kd [3] [nM] | MFI [4] | MFI [5] | Binder | other results |
| --- | --- | --- | --- | --- | --- |
| 1.37 | 0.37 | 9600 | 21800 | S-29 (antibody, V domains shown, IgG) VH: EVQLVESGGGLVKPGGSLRLSCAASGFTFSSYSMNWVRQAPGKGLEWVSSISSSSNYIYYADSVKGRFTISRDNAKNSLYLQMNSLRAEDTAVYYCARGGLDRWGSFDIWGQGTMVTVSS VL: not shown | – |
| 1.53 | 4.96 | 8140 | 11900 | S-48 (antibody, V domains shown, IgG) VH: QVQLVESGGGVVQPGRSLRLSCAASGFTFSSYGMHWVRQAPGKGLEWVAVISYDGSNKYYADSVKGRFTISRDNSKNTLYLQMNSLRAEDTAVYYCARESGDRATLVYYYYYGMDVWGQGTTVTVSS VL: EIVMTQSPATLSVSPGERATLSCRASQSVSSNLAWYQQKPGQAPRLLIYSASTRATGIPARFSGSGSGTEFTLTISSLQSEDFAVYYCQQYNSWPITFGGGTKVEIK | – |

The next lines start with the binder.

| Binder | Kd [2] [nM] | Kd [3] [nM] | MFI [4] | MFI [5] | other results |
| --- | --- | --- | --- | --- | --- |
| S-2-2 (antibody, V domains shown, IgG) VH: QVQLVQSGAEVKKPGASVKVSCKASGYTFVAYYMHWVRQAPGQGLEWMGWINPNSGATRYAQKFQGRVTMTRDTSISTAYMELSRLRSDDTAVYYCARGKRSSGWYEGYGMDVWGQGTTVTVSS VL: DIQMTQSPSSLSASVGDRVTITCRASQSISSYLNWYQQKPGKAPKLLIYAASSLQSGVPSRFSGSGSGTDFTLTISSLQPEDFATYYCQQSDVSPITFGGGTKVEIK | – | – | – | – | Kd [1]: 2.27 nM |
| S-19 (antibody, V domains shown, IgG) VH: QVQLVQSGAEVKKPGSSVKVSCKASGGTFSSYAISWVRQAPGQGLEWMGGIIPIFGTASYAQKFQGRVTITADESTSTAYMELSSLRSEDTAVYYCARESRIPGSGYYYYYGMDVWGQGTTVTVSS VL: DIQMTQSPSSLSASVGDRVTITCRASQSISSYLNWYQQKPGKAPKLLIYSASSLQSGVPSRFSGSGSGTDFTLTISSLQPEDFATYYCQQTDGKPPTFGGGTKVEIK | 0.733 | 0.843 | 11700 | 28200 | – |
| S-21 (antibody, V domains shown, IgG) VH: QVQLVQSGAEVKKPGSSVKVSCKASGGTFSSYAISWVRQAPGQGLEWMGSIIPIFGTANYAQKFQGRVTITADESTSTAYMELSSLRSEDTAVYYCARERRYDGYYYYYGMDVWGQGTTVTVSS VL: DIQMTQSPSSLSASVGDRVTITCRASQSISSYLNWYQQKPGKAPKLLIYAASSLQSGVPSRFSGSGSGTDFTLTISSLQPEDFATYYCQQKASLPFTFGGGTKVEIK | 2.8 | 1.87 | 9380 | 22900 | – |
| S-2-2 Fab (Fab, V domains shown, Fab by papain digestion) VH: QVQLVQSGAEVKKPGASVKVSCKASGYTFVAYYMHWVRQAPGQGLEWMGWINPNSGATRYAQKFQGRVTMTRDTSISTAYMELSRLRSDDTAVYYCARGKRSSGWYEGYGMDVWGQGTTVTVSS VL: DIQMTQSPSSLSASVGDRVTITCRASQSISSYLNWYQQKPGKAPKLLIYAASSLQSGVPSRFSGSGSGTDFTLTISSLQPEDFATYYCQQSDVSPITFGGGTKVEIK | – | – | – | – | Kd [6]: 0.79 nM; Kd [7]: 2.68 nM |
| S-10 (antibody, V domains shown, IgG) VH: QVQLVQSGAEVKKPGASVKVSCKASGYTFTSYGISWVRQAPGQGLEWMGWISAYNGNTNYAQKLQGRVTMTTDTSTSTAYMELRSLRSDDTAVYYCARDPGGYGPTLYYYYGMDVWGQGTTVTVSS VL: EIVMTQSPATLSVSPGERATLSCRASQSVSSNLAWYQQKPGQAPRLLIYGASTRATGIPARFSGSGSGTEFTLTISSLQSEDFAVYYCQQYADWPPITFGGGTKVEIK | 2.29 | 11 | 8660 | 19400 | – |
| S-82-3 Fab (Fab, V domains shown, Fab by papain digestion) VH: QLQLQESGPGLVKPSETLSLTCTVSGGSISSSDYYWGWIRQPPGKGLEWIGQIYYKGSTYYNPSLKSRVTISVDTSKNQFSLKLSSVTAADTAVYYCARGVGSGYSYGYRYFDYWGQGTLVTVSS VL: EIVLTQSPGTLSLSPGERATLSCRASQSVSSSYLAWYQQKPGQAPRLLIYGASSRATGIPDRFSGSGSGTDFTLTISRLEPEDFAVYYCQQSHVSPWTFGGGTKVEIK | – | – | – | – | binding result [6]: no binding |
| S-82-5 Fab (Fab, V domains shown, Fab by papain digestion) VH: QLQLQESGPGLVKPSETLSLTCTVSGGSIKSSEYYWGWIRQPPGKGLEWIGSIYRAGSTYYNPSLKSRVTISVDTSKNQFSLKLSSVTAADTAVYYCARGVGSGYSYGYRYFDYWGQGTLVTVSS VL: EIVLTQSPGTLSLSPGERATLSCRASQSVSSSYLAWYQQKPGQAPRLLIYGASSRATGIPDRFSGSGSGTDFTLTISRLEPEDFAVYYCQQSHVSPWTFGGGTKVEIK | – | – | – | – | binding result [6]: no binding |
| S-82-3 (antibody, V domains shown, IgG) VH: QLQLQESGPGLVKPSETLSLTCTVSGGSISSSDYYWGWIRQPPGKGLEWIGQIYYKGSTYYNPSLKSRVTISVDTSKNQFSLKLSSVTAADTAVYYCARGVGSGYSYGYRYFDYWGQGTLVTVSS VL: EIVLTQSPGTLSLSPGERATLSCRASQSVSSSYLAWYQQKPGQAPRLLIYGASSRATGIPDRFSGSGSGTDFTLTISRLEPEDFAVYYCQQSHVSPWTFGGGTKVEIK | – | – | – | – | binding result [1]: no binding (tested: 0.39-50 nM antibody) |
| S-82-5 (antibody, V domains shown, IgG) VH: QLQLQESGPGLVKPSETLSLTCTVSGGSIKSSEYYWGWIRQPPGKGLEWIGSIYRAGSTYYNPSLKSRVTISVDTSKNQFSLKLSSVTAADTAVYYCARGVGSGYSYGYRYFDYWGQGTLVTVSS VL: EIVLTQSPGTLSLSPGERATLSCRASQSVSSSYLAWYQQKPGQAPRLLIYGASSRATGIPDRFSGSGSGTDFTLTISRLEPEDFAVYYCQQSHVSPWTFGGGTKVEIK | – | – | – | – | binding result [1]: no binding (tested: 0.39-50 nM antibody) |
| S-28 (antibody, V domains shown, IgG) VH: EVQLVESGGGLVKPGGSLRLSCAASGFTFSSYSMNWVRQAPGKGLEWVSSISSSSNYIYYADSVKGRFTISRDNAKNSLYLQMNSLRAEDTAVYYCARGGLDRWGSFDIWGQGTMVTVSS VL: not shown | 1.25 | 0.299 | 8560 | 21600 | – |
| S-15-6 (antibody, V domains shown, IgG) VH: QVQLVQSGAEVKKPGASVKVSCKASGYTFTSRYMSWVRQAPGQGLEWMGIINPVGGSTSYAQKFQGRVTMTRDTSTSTVYMELSSLRSEDTAVYYCARDPSGIAAAGPASRYYYGMDVWGQGTTVTVSS VL: EIVMTQSPATLSVSPGERATLSCRASQSVSSNLAWYQQKPGQAPRLLIYGASTRATGIPARFSGSGSGTEFTLTISSLQSEDFAVYYCQQARLGPWTFGGGTKVEIK | – | – | – | – | Kd [1]: 18.9 nM |
| S-15-6 Fab (Fab, V domains shown, Fab by papain digestion) VH: QVQLVQSGAEVKKPGASVKVSCKASGYTFTSRYMSWVRQAPGQGLEWMGIINPVGGSTSYAQKFQGRVTMTRDTSTSTVYMELSSLRSEDTAVYYCARDPSGIAAAGPASRYYYGMDVWGQGTTVTVSS VL: EIVMTQSPATLSVSPGERATLSCRASQSVSSNLAWYQQKPGQAPRLLIYGASTRATGIPARFSGSGSGTEFTLTISSLQSEDFAVYYCQQARLGPWTFGGGTKVEIK | – | – | – | – | Kd [6]: 0.07 nM; Kd [7]: 0.678 nM |
| S-18 (antibody, V domains shown, IgG) VH: QVQLVQSGAEVKKPGSSVKVSCKASGGTFSSYAISWVRQAPGQGLEWMGSIIPIFGTANYAQKFQGRVTITADESTSTAYMELSSLRSEDTAVYYCARDKHGRRGYYYYMDVWGKGTTVTVSS VL: EIVLTQSPATLSLSPGERATLSCRASQSVSSYLAWYQQKPGQAPRLLIYDASNRATGIPARFSGSGSGTDFTLTISSLEPEDFAVYYCQQGANAPPRTFGGGTKVEIK | 2.3 | 0.475 | 9350 | 21700 | – |
